Article PMC2630774 (FEBS letters, 2008)

T1: AhR (aryl hydrocarbon receptor), baculovirus expressed 6His fusion (human, UniProt P35869 11-848)
T1 sequence (looked up): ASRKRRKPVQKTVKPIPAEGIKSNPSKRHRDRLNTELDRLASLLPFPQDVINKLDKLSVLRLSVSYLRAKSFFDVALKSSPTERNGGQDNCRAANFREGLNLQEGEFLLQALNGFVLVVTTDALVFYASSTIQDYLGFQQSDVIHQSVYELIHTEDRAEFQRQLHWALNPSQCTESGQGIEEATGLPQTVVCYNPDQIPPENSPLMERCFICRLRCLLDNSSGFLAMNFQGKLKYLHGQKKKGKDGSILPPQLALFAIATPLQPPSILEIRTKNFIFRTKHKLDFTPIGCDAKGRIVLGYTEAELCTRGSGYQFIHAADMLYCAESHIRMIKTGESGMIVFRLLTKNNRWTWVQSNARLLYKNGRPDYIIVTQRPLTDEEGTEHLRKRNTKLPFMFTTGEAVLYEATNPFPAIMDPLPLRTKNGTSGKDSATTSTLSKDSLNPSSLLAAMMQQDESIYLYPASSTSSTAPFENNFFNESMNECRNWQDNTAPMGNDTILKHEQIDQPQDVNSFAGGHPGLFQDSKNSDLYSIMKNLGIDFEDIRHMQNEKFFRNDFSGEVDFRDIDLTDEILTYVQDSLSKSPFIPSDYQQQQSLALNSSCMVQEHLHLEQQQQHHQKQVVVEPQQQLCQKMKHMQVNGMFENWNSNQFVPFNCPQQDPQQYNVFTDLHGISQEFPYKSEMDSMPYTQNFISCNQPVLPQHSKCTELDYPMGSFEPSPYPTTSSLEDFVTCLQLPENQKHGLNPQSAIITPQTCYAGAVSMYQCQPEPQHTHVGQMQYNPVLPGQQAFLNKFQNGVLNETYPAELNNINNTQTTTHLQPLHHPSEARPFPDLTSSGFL

B1: Arnt (AhR nuclear translocator), baculovirus expressed 6His fusion (natural protein)
chain: not shown

How the values were obtained:
[1] = target: T1, AhR (aryl hydrocarbon receptor), …; test: native gel or EMSA
[2] = target: B1; test: co-IP
[3] = target: B1; test: native gel or EMSA

| Binder | binding result [3] | other results |
| --- | --- | --- |
| B1 | – | binding result [1]: binds |
| 32P-CΔ553 (AhR deletion construct with C-terminal 553 amino acids deleted, thioredoxin released, 32P-labelled) (domain or fragment, human, UniProt P35869 1-295, looked up, 32P-phosphate (HMK phosphorylation using 32P-gamma ATP; residue not stated)) MNSSSANITYASRKRRKPVQKTVKPIPAEGIKSNPSKRHRDRLNTELDRLASLLPFPQDVINKLDKLSVLRLSVSYLRAKSFFDVALKSSPTERNGGQDNCRAANFREGLNLQEGEFLLQALNGFVLVVTTDALVFYASSTIQDYLGFQQSDVIHQSVYELIHTEDRAEFQRQLHWALNPSQCTESGQGIEEATGLPQTVVCYNPDQIPPENSPLMERCFICRLRCLLDNSSGFLAMNFQGKLKYLHGQKKKGKDGSILPPQLALFAIATPLQPPSILEIRTKNFIFRTKHKLDF | – | binding result [2]: binds |
| TH-CΔ553 (thioredoxin fusion of CΔ553, a deletion construct of human AhR) (domain or fragment, UniProt P35869 1-295, looked up) MNSSSANITYASRKRRKPVQKTVKPIPAEGIKSNPSKRHRDRLNTELDRLASLLPFPQDVINKLDKLSVLRLSVSYLRAKSFFDVALKSSPTERNGGQDNCRAANFREGLNLQEGEFLLQALNGFVLVVTTDALVFYASSTIQDYLGFQQSDVIHQSVYELIHTEDRAEFQRQLHWALNPSQCTESGQGIEEATGLPQTVVCYNPDQIPPENSPLMERCFICRLRCLLDNSSGFLAMNFQGKLKYLHGQKKKGKDGSILPPQLALFAIATPLQPPSILEIRTKNFIFRTKHKLDF | binds | – |
| unlabelled CΔ553 (AhR deletion construct with C-terminal 553 amino acids deleted, without thioredoxin fusion) (domain or fragment, human, UniProt P35869 1-295, looked up) MNSSSANITYASRKRRKPVQKTVKPIPAEGIKSNPSKRHRDRLNTELDRLASLLPFPQDVINKLDKLSVLRLSVSYLRAKSFFDVALKSSPTERNGGQDNCRAANFREGLNLQEGEFLLQALNGFVLVVTTDALVFYASSTIQDYLGFQQSDVIHQSVYELIHTEDRAEFQRQLHWALNPSQCTESGQGIEEATGLPQTVVCYNPDQIPPENSPLMERCFICRLRCLLDNSSGFLAMNFQGKLKYLHGQKKKGKDGSILPPQLALFAIATPLQPPSILEIRTKNFIFRTKHKLDF | binds | – |
